Experiment [1] concerns the target T1, CAIX (UniProt Q16790 38-414).
Experiment [2] addresses T1, CAIX. This is another data set of the same source.
Experiment [3] has as its target T1, CAIX. This is another data set of the same source.
Experiment [4] deals with T2, PE labeled CAIX protein (UniProt Q16790 38-414). As to the kind of experiment: FACS binding. In general terms: A flow cytometer gives signals particle by particle.
Experiment [5] deals with T2, PE labeled CAIX protein. As to the kind of experiment: FACS binding. The source holds these as a separate data set.

This is an account of results in patent US12577311 (dated 2026).

Broadly, the Kd is the concentration at which binding is half-saturated. Lower therefore signals higher affinity. By EC50 is commonly meant the concentration at which the effect is half-maximal. A low value points to a more potent agent.

Positions count from the first letter of the chain named. Where two headings read alike, the source gives them in different places.

B1: G125 (antibody, V domains shown)
VH: EVQLVESGGGVVQPGRSLRLSCAASGFTFSSYGMHWVRQAPGKGLEWVSAISGSGGSTYYADSVKGRFTISRDNAKNTLYLQMNSLRAEDTAVYYCARAAVTGGFDPWGQGTLVTVSS
VL: QPGLTQPPSVSVAPGQTARITCGGDNIGRKSVHWYQQRPGQAPILVIRDDRDRPSGIPERFSGSSSVNTATLIISRVEAGDEADYYCQVWDSSSKHYVFGPGTKVTALG
As to B1, the dissociation constant Kd in the experiment with CAIX [1], with CAIX [2] and in the experiment with CAIX [3] was 40.3 nM throughout.

B2: anti-CAIX (G36) CAR (scFv, V domains shown)
VH: EVQLVQSGGGVVQPGGSLRLSCAASGFPFSSYAMSWVRQAPGKGLEWVSAISANGGTTYYADSVKGRFTISRDNSKNTLYLQMNSLRAEDTAVYYCANNGNYRGAFDIWGQGTMVTVSS
VL: QSVLTQPPSVSGAPGQRVTISCTGSSSNIGAGFDVHWYQQLPGTAPKLLIYGNTNRPSGVPDRFSGSKSGTSASLAITGLQAEDETDYYCQSYDSRLSAWVFGGGTKLTVLG
As to B2, the EC50 with PE labeled CAIX protein [4] and with PE labeled CAIX protein [5] was 0.132 µg/mL in each case.

B3: G10 (antibody, V domains shown)
VH: B2 VH with E1Q, V11L
VL: QSVLTQPPSVSGAPGQRVTISCTGSSSNIGAGYDVHWYQQLPGTAPKLLIYGNSNRPSGVPDRFSGSKSGSSASLAITGLQAEDEAHYYCQSYDRSLSWVFGGGTKLTVLG
For B3, the equilibrium dissociation constant (Kd) with CAIX [1], in the experiment with CAIX [2] and in the experiment with CAIX [3] was 1.62 nM each time.

B4: G37 (antibody, V domains shown)
VH: B2 VH with E1Q
VL: B2 VL with V18I, S26R, G32D, F33Y, G52A, T54N, Y89F, R96S, L108V
Turning to B4, the Kd with CAIX [1], in the experiment with CAIX [2] and with CAIX [3] was 1.89 nM throughout.

B5: G36 (antibody, V domains shown)
VH: B2 VH
VL: B2 VL
Turning to B5, the Kd with CAIX [1], with CAIX [2] and with CAIX [3] was 3.22 nM in each case.

B6: G119 (antibody, V domains shown)
VH: B2 VH with E1Q, V11L, T116I
VL: B2 VL with F33Y, T78I, E83D, T86A, R96T, S98R, A99V, V101M
On to B6, for which the Kd in the experiment with CAIX [1], with CAIX [2] and with CAIX [3] was 1.49 nM in each case.

B7: G45 (antibody, V domains shown)
VH: B2 VH with E1Q, V11L, Q13R, M114T
VL: QSVLTQPPSVSGAPGQRITISCTGSSSNIGAGYDVHWYQQVPGKAPKVVIYGNNNRPSGVPDRFSGSKSGASASLAITGLQTEDEADYYCQSYDKSLTWVFGGGTKVTVLG
Regarding B7, the Kd with CAIX [1], with CAIX [2] and with CAIX [3] was 12.5 nM each time.

B8: G106 (antibody, V domains shown)
VH: B2 VH with V11L, P28T, M114T
VL: B2 VL with K47R, T54N, Y89F, R96S, L108V, G112R
In the case of B8, the dissociation constant (Kd) with CAIX [1], with CAIX [2] and with CAIX [3] was 3.2 nM throughout.

B9: G40 (antibody, V domains shown)
VH: QVQLVQSGGGLVQPGGSLRLSCAASGFTFSSYAMSWVRQAPGKGLEWVSAISGSGGSTYYADSVKGRFTISRDNSKNTLYLQMNSLRAEDTAVYYCATYGDYGSLDYWGQGTLVTVSS
VL: B2 VL with F33Y, G52A, T54N, T86A, R96S, S98R, T109A
Regarding B9, the dissociation constant (Kd) in the experiment with CAIX [1], with CAIX [2] and in the experiment with CAIX [3] was 21.8 nM each time.

B10: G9 (antibody, V domains shown)
VH: B9 VH with V5Q, Q6E, T98R, Y99S, G100H, D101S, Y102S, S104G, L105F
VL: B2 VL with A31R, F33Y, D34N, T86G, R96S
In the case of B10, the dissociation constant Kd with CAIX [1], in the experiment with CAIX [2] and in the experiment with CAIX [3] was 99.6 nM each time.

B11: G6 (antibody, V domains shown)
VH: QVQLVQSGGGLVQPGGSLRLSCAASEFTFGTYAMTWVRQAPGKGLEWVSAVSGSGGSTYYADSVKGRFTISRDNSRNTLYLQMNSLRADDTAVYYCARGPVLRYGFDIWGQGTMVIVSS
VL: QSVLTQPPSVSGAPGQRITISCTGSRSNIGADYDVHWYQQLPGTAPKLLIYANNNRPSGVPGRFSASKSGTSASLAISGLQAEDEADYYCQSYDSSLRAWVFGGGTKLAVLG
With B11, the Kd in the experiment with CAIX [1], in the experiment with CAIX [2] and in the experiment with CAIX [3] was 25.9 nM each time.

B12: G57 (antibody, V domains shown)
VH: QVQLVQSGGGVVQPGRSLRLSCAASGFTFSSYGMHWVRQAPGKGLEWVAVISYDGSNKYYADSVKGRFTISRDNSKNTLYLQMNSLRAEDTAVYYCAREAPYSSSLDAFDIWGQGTMVTVSS
VL: QSVLTQPPSVSGAPGQRVTISCTGSSSNIGRGYNVHWYQQLPGTAPKLLIYGNSNRPSGVPDRFSGSSSGNTASLTITGAQAEDEADYYCHSRDNNGHHIFGGGTKLTVLS
In the case of B12, the dissociation constant Kd with CAIX [1], in the experiment with CAIX [2] and in the experiment with CAIX [3] was 4.25 nM throughout.

B13: G39 (antibody, V domains shown)
VH: not shown
VL: QSVLTQPPSVSGAPGQRVTISCTGSSSNIGRGYNVHWYQQLPGTAPKLLIYDNTNRPSGVPARFSGSKSATSASLAITGLQADDEADYYCQSYDSGLRWVFGGGTKLTLLR
As to B13, the dissociation constant Kd with CAIX [1], with CAIX [2] and with CAIX [3] was 3.43 nM throughout.

B14: G27 (antibody, V domains shown)
VH: QVTLKESGGGVVQPGTSLRLSCAASGFTFSNYAMTWVRQAPGKGLEWVGLISYDGSVTHYTDSVKGRFTISRDNAKNSLYLQMNTLRADDTAVYYCARGSGYQEHWGQGTLVTVSS
VL: LPVLTQPPSVSVAPGQTARITCGGNNIGSKSVEWYQQKPGQAPVLVIYYDSDRPSGIPERFSGSNSGNTATLTISRVEAGDEADYYCQVWDSSSDHHVVFGGGTKLTVLG
As to B14, the Kd in the experiment with CAIX [1], in the experiment with CAIX [2] and with CAIX [3] was 25.1 nM each time.
